The text below walks through data of PMC2950913 (Nature structural & molecular biology, 2010).

For this assay, the target named is T1, RAD51 recombinase (human, UniProt Q06609 1-339).
T1 sequence: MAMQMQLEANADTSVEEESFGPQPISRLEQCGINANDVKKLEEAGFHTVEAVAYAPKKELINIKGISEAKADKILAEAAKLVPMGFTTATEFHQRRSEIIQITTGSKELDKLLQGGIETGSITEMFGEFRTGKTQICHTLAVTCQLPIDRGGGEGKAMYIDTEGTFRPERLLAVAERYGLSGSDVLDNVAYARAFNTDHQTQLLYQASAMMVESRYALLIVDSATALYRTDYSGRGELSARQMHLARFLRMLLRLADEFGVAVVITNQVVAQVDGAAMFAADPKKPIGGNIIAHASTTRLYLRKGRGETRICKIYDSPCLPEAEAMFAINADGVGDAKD
Kind of assay: pull-down.

B1: GST-tagged PALB2 1-184 fragment (domain or fragment)
chain: MDEPPGKPLSCEEKEKLKEKLAFLKREYSKTLARLQRAQRAEKIKHSIKKTVEEQDCLSQQDLSPQLKHSEPKNKICVYDKLHIKTHLDEETGEKTSITLDVGPESFNPGDGPGGLPIQRTDDTQEHFPHRVSDPSGEQKQKLPSRRKKQQKRTFISQERDCVFGTDSLRLSGKRLKEQEEISS
With B1, the binding result is reported as “binds”.
